This is an account of results in paper PMC6378967.

Assay [1] addresses WT human renin (human) (UniProt P00797).
Assay [2] deals with biotinylated renin D226A mutant (human). Put plainly: BLI; FortéBio Octet Red96; biotinylated renin D226A (2.5 μg/ml) loaded on streptavidin biosensors; 2-fold dilutions of AGT in 10 mM Tris, pH 7.4, 0.15 M NaCl, 1% BSA; 1:1 binding model, global fit; KD = koff/kon; three independent assays.
The target of assay [3] is WT human renin (human) (UniProt P00797). This is another data set of the same source.
WT human renin (human), sequence (P00797 67-406): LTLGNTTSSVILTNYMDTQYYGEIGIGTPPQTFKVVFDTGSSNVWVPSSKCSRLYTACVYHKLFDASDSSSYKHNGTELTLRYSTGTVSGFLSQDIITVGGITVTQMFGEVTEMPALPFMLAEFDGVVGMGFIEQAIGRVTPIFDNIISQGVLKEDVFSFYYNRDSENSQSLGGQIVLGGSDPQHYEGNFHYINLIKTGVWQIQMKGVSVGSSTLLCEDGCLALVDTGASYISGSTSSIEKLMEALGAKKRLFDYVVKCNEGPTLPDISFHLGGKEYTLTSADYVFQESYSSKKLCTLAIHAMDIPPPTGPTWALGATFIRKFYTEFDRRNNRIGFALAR

pKd: −log10 of the molar value.

On to “fully glycosylated WT human angiotensinogen (AGT) (natural protein)”, for which, in the assay with WT human renin (human) [1], the Km of cleavage of AGT by WT human renin (released Ang I quantified by immunoassay) was determined as 0.76 µM, the kcat of cleavage of AGT by WT human renin (released Ang I quantified by immunoassay) came out at 0.2 s⁻¹ and the kcat/Km of cleavage of AGT by WT human renin (released Ang I quantified by immunoassay) was found to be 250000 M⁻¹ s⁻¹.
One may read the pKd as the negative decadic logarithm of the Kd, by convention in mol/L. Usually koff stands for a measure of how fast the partners let go of each other. Usually kon stands for the second-order rate constant of association. Regarding “human AGT N14Q variant (natural protein)”, in the assay with WT human renin (human) [1], the Km of cleavage of AGT by WT human renin (released Ang I quantified by immunoassay) is 0.56 µM, the kcat of cleavage of AGT by WT human renin (released Ang I quantified by immunoassay) came to 0.35 s⁻¹ and the kcat/Km of cleavage of AGT by WT human renin (released Ang I quantified by immunoassay) worked out at 640000 M⁻¹ s⁻¹. In assay [2], this substance had a negative logarithm of the Kd (pKd) of 8.24, an off-rate constant (koff) of 0.000209 s⁻¹ and a kon of 36100 M⁻¹ s⁻¹.
Consider human AGT N331D (natural protein), for which, in the assay with WT human renin (human) [1], the Km of cleavage of AGT by WT human renin (released Ang I quantified by immunoassay) was determined as 2.56 µM, the kcat of cleavage of AGT by WT human renin (released Ang I quantified by immunoassay) worked out at 0.14 s⁻¹ and the kcat/Km of cleavage of AGT by WT human renin (released Ang I quantified by immunoassay) is 50000 M⁻¹ s⁻¹. In assay [2], this substance had a pKd of 7.04, an off-rate (koff) of 0.000296 s⁻¹ and an on-rate constant (kon) of 3210 M⁻¹ s⁻¹.
As for human AGT N334T (natural protein), in the assay with WT human renin (human) [1], the Km of cleavage of AGT by WT human renin (released Ang I quantified by immunoassay) is 0.76 µM, the kcat of cleavage of AGT by WT human renin (released Ang I quantified by immunoassay) came out at 0.16 s⁻¹ and the kcat/Km of cleavage of AGT by WT human renin (released Ang I quantified by immunoassay) turned out to be 220000 M⁻¹ s⁻¹. In assay [2], this substance had a pKd of 7.55, a koff of 0.000418 s⁻¹ and a kon of 15000 M⁻¹ s⁻¹.
On to human AGT R83H (natural protein), for which, in the assay with WT human renin (human) [1], the Km of cleavage of AGT by WT human renin (released Ang I quantified by immunoassay) stood at 1.42 µM, the kcat of cleavage of AGT by WT human renin (released Ang I quantified by immunoassay) was 0.2 s⁻¹ and the kcat/Km of cleavage of AGT by WT human renin (released Ang I quantified by immunoassay) was determined as 140000 M⁻¹ s⁻¹. In addition, in assay [2], the pKd is 7.35, the koff was found to be 0.000606 s⁻¹ and the kon is 14000 M⁻¹ s⁻¹.
With “human AGT quadruple glycosylation mutant N14Q/N137Q/N271Q/N295Q (natural protein)”, in the assay with WT human renin (human) [1], the Km of cleavage of AGT by WT human renin (released Ang I quantified by immunoassay) is 0.67 µM, the kcat of cleavage of AGT by WT human renin (released Ang I quantified by immunoassay) was 0.44 s⁻¹ and the kcat/Km of cleavage of AGT by WT human renin (released Ang I quantified by immunoassay) was 650000 M⁻¹ s⁻¹. In assay [2], this substance had a negative logarithm of the Kd (pKd) of 8.92, a koff of 8.61e-05 s⁻¹ and an association rate constant (kon) of 74600 M⁻¹ s⁻¹.
The substance “spent AGT (human AGT without the N-terminal 10-residue angiotensin I peptide) (domain or fragment)” displayed an inhibition of renin cleavage of an AGT fusion protein (intact AGT 1.1 μM) by increasing amounts of spent AGT (product inhibition; blocks renin with intact AGT) in the assay with WT human renin (human) [3] of 0.65 µM.
